Source: PMC4955856 (Biochemistry, 2016)
Several values for one entry are separate records, joined by “and”; a condition that tells them apart may be missing. Equal entries are not always repeated. Where two headings read alike, the source gives them in different places. Values belong to the molecule of their own block, whether it stands above or below them.

Assays:
[1] = target: human UDP-glucose dehydrogenase Y96Bpa (human) (UniProt O60701); assay: SEC
[2] = target: human UDP-glucose dehydrogenase Q458Bpa (human) (UniProt O60701); assay: SEC
[3] = target: human UDP-glucose dehydrogenase Q458Bpa (human) (UniProt O60701); assay: cross-linking
[4] = target: human UDP-glucose dehydrogenase Q458Bpa (human) (UniProt O60701); assay: SEC; remark: listed apart in the source
[5] = target: human UDP-glucose dehydrogenase T325D obligate dimeric mutant (human) (UniProt O60701); assay: SEC
SEC = target: the molecule itself; assay: SEC

- stoichiometry N [1]: 2
Molecule: human UDP-glucose dehydrogenase Y96Bpa (from UniProt O60701 1-494) (enzyme)

- stoichiometry N [2]: 6
- cross-linking efficiency (holoenzyme) [3]: > 60%
- cross-linking efficiency (with UDP-xylose alone) [3]: 40%
- total crosslinking efficiency (with NAD+ and UDP-glucose) [3]: 63%
- stoichiometry N [4]: 6
Molecule: human UDP-glucose dehydrogenase Q458Bpa (from UniProt O60701 1-494) (enzyme)

- stoichiometry N [5]: 2
Molecule: human UDP-glucose dehydrogenase T325D obligate dimeric mutant (from UniProt O60701 1-494) (enzyme)

B1: human UDP-glucose dehydrogenase, wild type (enzyme, UniProt O60701 1-494, looked up)
chain: MFEIKKICCIGAGYVGGPTCSVIAHMCPEIRVTVVDVNESRINAWNSPTLPIYEPGLKEVVESCRGKNLFFSTNIDDAIKEADLVFISVNTPTKTYGMGKGRAADLKYIEACARRIVQNSNGYKIVTEKSTVPVRAAESIRRIFDANTKPNLNLQVLSNPEFLAEGTAIKDLKNPDRVLIGGDETPEGQRAVQALCAVYEHWVPREKILTTNTWSSELSKLAANAFLAQRISSINSISALCEATGADVEEVATAIGMDQRIGNKFLKASVGFGGSCFQKDVLNLVYLCEALNLPEVARYWQQVIDMNDYQRRRFASRIIDSLFNTVTDKKIAILGFAFKKDTGDTRESSSIYISKYLMDEGAHLHIYDPKVPREQIVVDLSHPGVSEDDQVSRLVTISKDPYEACDGAHAVVICTEWDMFKELDYERIHKKMLKPAFIFDGRRVLDGLHNELQTIGFQIETIGKKVSSKRIPYAPSGEIPKFSLQDPPNKKPKV
- stoichiometry N (SEC): 6 and 2
